According to EP4089107A1 (Cytoki Pharma ApS, dated 2022):
Substitutions are numbered along the chain they refer to.

B1: native mature human IL-22 (ligand)
chain: APISSHCRLDKSNFQQPYITNRTFMLAKEASLADNNTDVRLIGEKLFHGVSMSERCYLMKQVLNFTLEEVLFPQSDRFQPYMQEVVPFLARLSNRLSTCHIEGDDLHIQRNVQKLKDTVKKLGESGEIKAIGELDLLFMSLRNACI
B2: Derivative 2 (ligand)
chain: B1 chain with N35Q, N64Q, R95C
modifications: C18 diacid covalently attached via linker γGlu-OEG-OEG-C2DA-Ac at residue 95C
B3: Derivative 1 (ligand)
chain: B1 chain with N35Q, N64Q, L106C
modifications: C18 diacid covalently attached via linker γGlu-OEG-OEG-C2DA-Ac at residue 106C

Key:
[1] = target: T1, human IL-22 receptor (human IL-22Ra and human IL-10Rb) expressed on BHK reporter cells (human, UniProt Q8N6P7 16-574; Q08334 20-325); test: cell-based or functional assay
T1 sequence (looked up) 1: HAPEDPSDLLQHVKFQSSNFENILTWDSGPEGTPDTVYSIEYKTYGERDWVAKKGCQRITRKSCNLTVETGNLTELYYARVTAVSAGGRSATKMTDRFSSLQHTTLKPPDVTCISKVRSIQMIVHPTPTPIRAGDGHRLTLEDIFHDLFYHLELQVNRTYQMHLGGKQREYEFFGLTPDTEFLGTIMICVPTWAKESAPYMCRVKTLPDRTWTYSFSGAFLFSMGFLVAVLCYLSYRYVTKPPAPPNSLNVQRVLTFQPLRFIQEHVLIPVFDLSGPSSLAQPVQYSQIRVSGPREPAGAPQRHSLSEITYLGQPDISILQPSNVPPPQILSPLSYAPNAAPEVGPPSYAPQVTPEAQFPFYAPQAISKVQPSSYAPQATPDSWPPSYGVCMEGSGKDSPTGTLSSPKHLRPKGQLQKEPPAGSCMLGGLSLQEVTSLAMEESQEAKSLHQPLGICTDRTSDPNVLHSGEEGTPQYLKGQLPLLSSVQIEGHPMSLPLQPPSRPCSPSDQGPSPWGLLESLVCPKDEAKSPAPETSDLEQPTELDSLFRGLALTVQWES
T1 sequence (looked up) 2: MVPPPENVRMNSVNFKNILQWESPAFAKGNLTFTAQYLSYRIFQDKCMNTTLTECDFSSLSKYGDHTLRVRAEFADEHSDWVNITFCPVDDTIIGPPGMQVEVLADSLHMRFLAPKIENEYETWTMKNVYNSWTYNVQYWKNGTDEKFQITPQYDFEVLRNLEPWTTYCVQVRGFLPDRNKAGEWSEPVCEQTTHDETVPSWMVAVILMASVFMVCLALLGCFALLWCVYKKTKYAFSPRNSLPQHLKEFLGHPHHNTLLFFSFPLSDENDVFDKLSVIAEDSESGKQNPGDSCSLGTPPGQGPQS

[2] = target: T1, human IL-22 receptor (human IL-22Ra and …); test: cell-based or functional assay; remark: listed apart in the source

Binder | EC50 in BHK cell reporter gene assay (luciferase with STAT3-induced promoter) [1] | fold reduction in potency compared to hIL-22, BHK cell assay with albumin present [2]
B1 | 0.07 nM | –
B2 | 0.36 nM | 5 fold
B3 | 0.23 nM | 3 fold
